From patent US20240400689A1 (ANTENGENE BIOLOGICS, published 2024)
Numbering of substitutions follows the chain as printed.

T1: human CD276 protein (human, UniProt Q5ZPR3 29-534)
T1 construct: whole, on cells; for SKOV3 and the other cancer lines the protein is the cells' own; also called B7-H3; B7H3
T1 sequence (looked up): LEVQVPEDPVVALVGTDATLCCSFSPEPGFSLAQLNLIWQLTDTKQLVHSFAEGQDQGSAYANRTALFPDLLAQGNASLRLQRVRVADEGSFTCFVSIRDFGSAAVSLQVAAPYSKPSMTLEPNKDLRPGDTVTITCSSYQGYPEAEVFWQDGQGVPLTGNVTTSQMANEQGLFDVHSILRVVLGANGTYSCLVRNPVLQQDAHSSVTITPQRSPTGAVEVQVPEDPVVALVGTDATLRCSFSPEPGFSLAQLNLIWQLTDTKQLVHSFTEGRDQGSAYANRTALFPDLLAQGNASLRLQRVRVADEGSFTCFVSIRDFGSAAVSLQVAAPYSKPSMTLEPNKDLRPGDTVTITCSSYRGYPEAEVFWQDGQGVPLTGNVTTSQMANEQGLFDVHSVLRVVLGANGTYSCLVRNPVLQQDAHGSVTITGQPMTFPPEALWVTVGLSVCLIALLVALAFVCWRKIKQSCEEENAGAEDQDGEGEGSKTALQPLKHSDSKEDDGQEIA

T2: mouse CD276 protein (mouse, UniProt Q8VE98 29-316)
T2 construct: whole, on cells; also called mCD276; CHO-S-mCD276
T2 sequence (looked up): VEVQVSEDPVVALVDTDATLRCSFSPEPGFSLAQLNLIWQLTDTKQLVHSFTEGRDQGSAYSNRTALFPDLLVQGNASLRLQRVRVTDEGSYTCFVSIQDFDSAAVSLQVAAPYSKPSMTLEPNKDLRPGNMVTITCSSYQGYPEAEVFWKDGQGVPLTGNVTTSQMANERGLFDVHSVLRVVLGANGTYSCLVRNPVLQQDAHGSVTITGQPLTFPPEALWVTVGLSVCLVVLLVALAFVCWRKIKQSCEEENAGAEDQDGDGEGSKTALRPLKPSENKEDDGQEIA

B1: 25-D3-G4-C6 (antibody, V domains shown)
VH: EIQLQQTGPELVKPGASVKISCKASGYSFTDYIILWVKQSHGMSLEWIGNINPYYNSTYYNLKFKGKATLTVDKSSSTAYMQLDSLTSEDSAVYYCARDSFDWYFGVWGAGTTVTVSS
VL: DVVMTQTPLSLPVSLGDQASISCRSSQSLVHSNGNTYLHWYLQKPGQSPKLLIYKVSNRFSGVPDRFSGSGSGTDFTLKISRVETEDLGIYFCSQSTHVPPLTFGAGTKLELK
notes: mouse monoclonal antibody (hybridoma)
B2: 13-A8-C4-G1 (antibody, V domains shown)
VH: QVQLQQPGAELVKPGASMKLSCKASGYIFTSNWMHWVKQRPGQGLEWIGMIHPNSGTTSYNEKFKNKAKLTVDKSSSTAYVQLSSLTSEDSAVYYCAGPTTTRRFYPMDYWGQGTSVTVSS
VL: QAVVTQESALTTSPGETVTLTCRSSTGAVTTSNYANWVQEKPDHLFTGLIGGTNNRAPGVPARFSGSLIGDKAALTITGAQTEDEAIYFCALWYSNHFIFGSGTKVTVL
notes: as for B1
B3: 15-C8-B5-G7 (antibody, V domains shown)
VH: QVQLQQPGAELVKPGASVKLSCKASDYTFTSHWMHWVKQRPGQGLEWIGMIHPNSGTTHYNENFKNKATLTVDNSSSTAYMQLSSLTSEDSAVYYCAWGSSNSYFYAMAYWGQGTSVTVSS
VL: B2 VL with D43A, Y94F, F98L, I99V, S102G, V106L
notes: as for B1
B4: 6-F3-G2-G1 (antibody, V domains shown)
VH: QVQLQQPGAELVKPGASVKLSCKASDYTFTNYWMHWVKQRPGQGLEWIGMIHPNSGTTSYNEKFKNKATLTVDTSSATTYMHLSSLTSEDSAVYYCASHYGNSYSAMDYWGQGTSVTVSS
VL: B2 VL with E16G, T19I, N54S, A62V, E85D, I87M, N96T, F98Y, I99V, S102G
notes: as for B1
B5: 9-G2-H6-E4 (antibody, V domains shown)
VH: EVQLQQSGPDLVKPGASVKISCKASGYSFTGYFMNWVKQRHGKSLEWIGYINPNNGDTIYNQKFKGKATLTVDKSSSTAHMELLSLTSEDSAVYYCGRGGLPFGALDYWGQGTSVTVSS
VL: DIVMSQSPSSLAVSVGEKVNMSCKSSQSLLYSRNQKNYLAWNQQKPGQSPKLLIYWASARESGVPDRFTGSGSGTDFTLTISSVKAEDLAAYYCQQYHSYPYTFGGGTKLELK
notes: as for B1
B6: 9-E8-F9-C10 (antibody, V domains shown)
VH: EVQLQQSGAELVRPGTSVKISCKASGYAFSDYWLSWVKQRPGHGLEWIGDICPGSGNIYYNERFKDKVILTADRSSSTAYLQFSSLTSEDSVVYFCTRLITRVIDYWGQGTSVTVST
VL: ENVLTQSPAIMSASPGEKVTMTCSASSSVNYMHWYQQKSSTSPKLWIYDTSKLSSGVPGRFSGSGSGNSYSLTISSMEAEDVATYYCFQGSGYPLTFGAGTKLELK
notes: as for B1
B7: 14-E7-G9-D4 (antibody, V domains shown)
VH: EVQLQQSGPELVKPGASVKMSCKASGYTFTNYIMHWVKQKPGQGLEWIGYINPYNDGIKYNEKFKGKATLTSDKSSSTAYMELSSLTSEDSAVYYCTRWGNYVFYYTMDYWGQGTSVTVSS
VL: QIVLSQSPAILSASPGEKVTMTCRASSSVSYMHWYQQKPGSSPKPWIYATSNLASGVPARFSGSGSGTSYSLTISRMEAEDAATYYCQQWSGNPPLTFGAGTKLELK
notes: as for B1
B8: 7-E1-F8-F6 (antibody, V domains shown)
VH: QVQLQQSGPELVKPGASVQMSCKASGYTFTDYVISWVNQRTGQGLEWIGEIYPRSGNTYYNEKFKGKATLTADKSSNTAYMQLSSLTSEDSAVYFCARFDIAYSFDYWGQGTTLTVSS
VL: DVVMTQTPLSLPVSLGDQASISCRSTQSLVHSNGVTYLHWYLQKPGQSPKLLIYKVSNRFSGVPDRFSGSGSGTDFTLKISRVEAEDLGVYFCSQGTHVPWTFGGGTKLEIK
notes: as for B1
B9: 4-D5-B9-B11 (antibody, V domains shown)
VH: EIGGLVKPGGSLKFSCAASGFTFSSYAMSWVRQTPEKRLEWVATISGGGIYYPDSVKGRFTISRDNAKNTLYLQMSSLRSEDTAMYYCARQGSKGWDAMDYWGQGTSVTVSS
VL: QIVLTQSPAIMSASPGEKVTMTCRASSSVSFMHWYQQKSGTSPKRWIYETSKLASGVPDRFSGSGSGTSYSLTISSMEAEDAATYYCQQWSSNPLTFGAGTKLELK
notes: as for B1
B10: 27-F8-E10-E11 (antibody, V domains shown)
VH: EVQLQQSGPELVKPGASVKISCKTSGYTFTEYAMHWVKQSHGKILEWIGGINPNIGGTTYNQKFKDKATLTVDKSSSTASMELRSLTSEDSAVYYCARFLVPSTEGFTYWGQGTLVTVSA
VL: B9 VL with R24S, F31Y, E49D, K52R, L53V, D59A
notes: as for B1
B11: 3-C2-C3-E7 (antibody, V domains shown)
VH: EVQLQQSGPELVKPGASVKISCKTSGYTFTENTMHWVKQSHGKRLEWIGGINPNTGGTTYNQKFKGKATLTVDKSSSTAYMELRSLTSEDSAVYYCARRGTNWEHWYFDVWGAGTTVTVSS
VL: B9 VL with R24S, F31Y, E49D, D59A
notes: as for B1
B12: 6-H11-G5-D8 (antibody, V domains shown)
VH: EVQLQESGPELVKPGTSVKLSCKASGYTFTSYDINWVRQRPEQGLEWIGWIFPGNGDTYYNEKFKGKATLTSDKSSSTAYMQLSRLTSEDSAVYFCARDLRLGTFDYWGQGTTLTVSS
VL: B9 VL with A9E, R24S, F31Y, M32I, E49D, D59A, S75R, W90G, L95R, A99G
notes: as for B1
B13: 2-A7-B10-A3 (antibody, V domains shown)
VH: QVQLQQSGAELVRPGVSVKISCKGSGYTFTDYAMHWVKQSHAKSLEWIGVINTNYVNTSYNQKFKGKATMTVDKSSSTAFMELARLTSEDSAIYYCARGGKYGNYVFFFAYWGQGTLVTVSA
VL: DIQMTQTTSSLSASLGDRVTISCRASQDISNYLNWYQQKPDGTVKLLIYYTSRLHSGVPSRFSGSGSGTDYSLTISNLEQEDIATYFCQQGNTLPYTFGGGTKLEIK
notes: as for B1
B14: 3-G7-D8-D3 (antibody, V domains shown)
VH: QVQLQQSGAELARPGTSVKLSCKASGYTFTTYWIQWVKQRPGQGLEWIGAIYPGDGDTRYTQKFKGKATLTADKSSSTAYMQLSTLASEDSAVYYCARPYDGYYIDYPMDSWGQGTSVTVSS
VL: QIVLTQSPAIMSASPGEKVTMTCSASSRINYMHWYQQKPGTSPIIWIYDTSKLASGVPARFSGSGSGTSYSLTISSMEAEDAATYYCHQRSSYPFTFGSGTKLEIK
notes: as for B1
B15: 27-E7-D8-C7 (antibody, V domains shown)
VH: EVQLQESGPELVRPGVSVKISCKGSGYTFTDYAMHWVKQSHAKSLEWIGVINTYSDNTNYNRKFKGKATMTVDKSSSTAYMELARLTSEDSAIYYCARGLLLRSQLGVYFDYWGQGTTLTVSS
VL: QIVLSQSPAILSASPGEKVTMTCRASSSVSYMHWYQQKPGSSPKPWIYATSNLASGVPARFSGSGSGTSYSLTISRVEAEDAATYYCQQWSSNPWTFGGGTKLEIK
notes: as for B1
B16: 28-G2-E6-B10 (antibody, V domains shown)
VH: QVQLQQPGAELVKPGASVKLSCKASGYTFTSYWMHWVKQRPGQGLEWIGMIHPNSDTTDYNEKFKTKATLTVDKSSSTAYMQLSSLTSEDSAVFYCARGGLGPHYFVYWGQGTTLTVSS
VL: QAVVTQESALTTSPGGTVILTCRSSTGAVTTSNYASWVQEKPDHLFTGLIGGTSNRAPGVPVRFSGSLIGDKAALTITGAQTEDDAMYFCALWYSPHYVFGGGTKVTVL
notes: as for B1

Assays:
[1] = target: T1, human CD276 protein; test: FACS on CHO-S-hCD276 cells
Procedure: (§1) Screening & Expansion—The subcloning plates were screened by protein or cell-based Elisa, and the subclones with good binding ability were expanded to 24-wells for confirmation tests. The specificity and cross-reactivity of these subclones were confirmed with FACS analysis. Briefly, parental CHO-S cells, CHO-S-hCD276, CHO-S cell line stably over-expressing Macaca fascicularis CD276, CHO-K1 S, cell line stably over-expressing mouse CD276 were incubated with antibodies produced by each subclone respectively. Fluorescent dye-conjugated secondary antibody was used to detect the binding of the primary antibody with the cells. Median fluorescence intensity was measured by FACS analysis.

[2] = target: T2, mouse CD276 protein; test: FACS on CHO-S-mCD276 cells
Procedure: as §1

[3] = target: T3, Macaca fascicularis CD276 (Macaca fascicularis); test: FACS on CHO-S-cynoCD276 cells
T3 construct: whole, on cells; also called cynomolgus monkey CD276; cynoCD276
Procedure: as §1

Binder | FACS MFI [1] | FACS MFI [2] | FACS MFI [3]
B1 | 5940 | 1370 | 5390
B2 | 54100 | 6200 | 95800
B3 | 36600 | 5730 | 43000
B4 | 37400 | 6980 | 114000
B5 | 49600 | 27600 | 5400
B6 | 7610 | 1950 | 5700
B7 | 78100 | 1300 | 61800
B8 | 6990 | 1310 | 5590
B9 | 145000 | 2100 | 148000
B10 | 16000 | 1350 | 80500
B11 | 38800 | 2770 | 2110
B12 | 113000 | 1360 | 30400
B13 | 58900 | 2040 | 56000
B14 | 82400 | 1290 | 6420
B15 | 94700 | 1590 | 87900
B16 | 56300 | 2080 | 40800
